The values that follow come from article PMC5774706.

The experiment has as its target human cytosolic aminopeptidase P, R535A mutant (human) (UniProt Q9NQW7).

Chain of bradykinin (P01042 whole entry, looked up): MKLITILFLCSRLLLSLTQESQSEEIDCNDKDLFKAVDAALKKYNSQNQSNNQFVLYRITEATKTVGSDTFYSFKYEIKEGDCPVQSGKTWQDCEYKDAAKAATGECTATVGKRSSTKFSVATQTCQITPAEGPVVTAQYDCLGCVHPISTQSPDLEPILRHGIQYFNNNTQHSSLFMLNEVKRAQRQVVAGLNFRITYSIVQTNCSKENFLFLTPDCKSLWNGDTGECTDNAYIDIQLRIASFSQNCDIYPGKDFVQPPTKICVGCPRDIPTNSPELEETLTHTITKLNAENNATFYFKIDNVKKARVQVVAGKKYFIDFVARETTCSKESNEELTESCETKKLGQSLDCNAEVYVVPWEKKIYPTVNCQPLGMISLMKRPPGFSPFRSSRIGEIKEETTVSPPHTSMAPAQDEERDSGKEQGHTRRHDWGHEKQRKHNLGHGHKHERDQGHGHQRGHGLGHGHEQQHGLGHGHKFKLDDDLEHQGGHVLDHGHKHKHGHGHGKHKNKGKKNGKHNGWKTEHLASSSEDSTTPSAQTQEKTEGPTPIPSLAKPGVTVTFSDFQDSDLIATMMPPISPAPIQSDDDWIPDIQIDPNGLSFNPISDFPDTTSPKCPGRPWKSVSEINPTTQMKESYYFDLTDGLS
Chain of human cytosolic aminopeptidase P, R535A mutant (human) (Q9NQW7 whole entry R535A): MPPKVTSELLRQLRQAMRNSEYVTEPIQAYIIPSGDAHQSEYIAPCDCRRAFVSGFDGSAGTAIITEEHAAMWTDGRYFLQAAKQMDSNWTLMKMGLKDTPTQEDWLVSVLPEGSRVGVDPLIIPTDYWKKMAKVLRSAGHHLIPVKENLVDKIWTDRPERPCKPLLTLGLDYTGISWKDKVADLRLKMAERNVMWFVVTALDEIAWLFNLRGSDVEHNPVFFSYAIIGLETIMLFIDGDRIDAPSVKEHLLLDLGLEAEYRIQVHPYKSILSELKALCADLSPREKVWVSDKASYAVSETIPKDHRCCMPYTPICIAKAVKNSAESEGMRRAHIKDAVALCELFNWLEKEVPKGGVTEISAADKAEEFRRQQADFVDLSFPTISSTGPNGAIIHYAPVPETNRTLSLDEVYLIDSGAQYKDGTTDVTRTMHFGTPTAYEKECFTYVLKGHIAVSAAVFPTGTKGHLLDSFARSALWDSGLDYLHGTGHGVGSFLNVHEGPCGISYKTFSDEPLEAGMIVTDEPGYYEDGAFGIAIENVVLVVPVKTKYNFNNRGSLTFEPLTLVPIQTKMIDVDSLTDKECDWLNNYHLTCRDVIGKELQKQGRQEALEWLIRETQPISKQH

For the substance “bradykinin (from UniProt P01042 381-389) (peptide)”, the Km for bradykinin of the hydrolysis catalysed by R535A hcAMPP (HPLC of des-Arg-bradykinin, 50 mM Tris-HCl pH 7.5, 37°C), with 0, 0.1, 1 and 10 mM guanidine hydrochloride: 350, 327, 144 and 163 μM was found to be 350 μM.
